Experimental data: the Immune Epitope Database (IEDB)

Columns and labels:
HLA-C*07:02 = experiment: IEDB peptide-MHC binding, purified MHC/direct/fluorescence; filed as Kd, often an IC50 or EC50 that approximates it; ≥ and ≤ were set here for values at or beyond the usual limits of such assays
HLA-A*32:07 = experiment: IEDB peptide-MHC binding, purified MHC/competitive/fluorescence; filed as Kd, often an IC50 or EC50 that approximates it; ≥ and ≤ were set here for values at or beyond the usual limits of such assays
HLA-B*15:42 = experiment: as above
HLA-B*27:20 = experiment: as above
HLA-B*45:06 = experiment: as above
HLA-B*83:01 = experiment: as above
HLA-A*02:01 [1] = experiment: IEDB peptide-MHC binding, purified MHC/direct/fluorescence; filed as Kd, often an IC50 or EC50 that approximates it; ≥ and ≤ were set here for values at or beyond the usual limits of such assays; conditions: source organism: Cowpox virus
HLA-A*26:03 = experiment: as above; conditions: source organism: Variola virus
HLA-A*68:02 = experiment: as above
HLA-A*69:01 = experiment: as above
HLA-B*07:02 = experiment: as above
HLA-B*08:03 = experiment: as above; conditions: source organism: Variola virus
HLA-B*15:01 = experiment: as above
HLA-B*15:09 = experiment: as above
HLA-B*15:17 = experiment: as above
HLA-B*38:01 = experiment: as above; conditions: source organism: Variola virus
HLA-B*39:01 = experiment: as above; conditions: source organism: Cowpox virus
HLA-B*40:01 = experiment: as above; conditions: source organism: Cowpox virus
HLA-B*46:01 = experiment: as above; conditions: source organism: Cowpox virus
HLA-B*57:01 = experiment: as above
HLA-B*58:01 = experiment: as above
HLA-A*01:01 [2] = experiment: IEDB peptide-MHC binding, purified MHC/competitive/fluorescence; filed as Kd, often an IC50 or EC50 that approximates it; ≥ and ≤ were set here for values at or beyond the usual limits of such assays; conditions: source organism: Vaccinia virus Copenhagen
HLA-A*30:01 = experiment: as above; conditions: source organism: Vaccinia virus Copenhagen
HLA-B*18:01 = experiment: as above
HLA-B*27:05 [3] = experiment: as above; conditions: source organism: Vaccinia virus Copenhagen
HLA-B*48:01 [4] = experiment: as above; conditions: source organism: Vaccinia virus Copenhagen
HLA-A*01:01 [5] = experiment: IEDB peptide-MHC binding, purified MHC/direct/fluorescence; filed as Kd, often an IC50 or EC50 that approximates it; ≥ and ≤ were set here for values at or beyond the usual limits of such assays; conditions: source organism: Marburg virus - Musoke, Kenya, 1980
HLA-A*11:01 = experiment: as above; conditions: source organism: Marburg virus - Musoke, Kenya, 1980
HLA-A*31:01 = experiment: as above; conditions: source organism: Marburg virus - Musoke, Kenya, 1980
HLA-B*08:02 = experiment: as above; conditions: source organism: Orthomarburgvirus marburgense
HLA-B*27:05 [6] = experiment: as above; conditions: source organism: Marburg virus - Musoke, Kenya, 1980
HLA-B*48:01 [7] = experiment: as above; conditions: source organism: Marburg virus - Musoke, Kenya, 1980
HLA-B*73:01 = experiment: as above; conditions: source organism: Marburg virus - Musoke, Kenya, 1980
HLA-A*02:01 [8] = experiment: IEDB peptide-MHC binding, purified MHC/competitive/fluorescence; filed as Kd, often an IC50 or EC50 that approximates it; ≥ and ≤ were set here for values at or beyond the usual limits of such assays
HLA-A*26:02 = experiment: as above; conditions: source organism: Orthomarburgvirus marburgense
HLA-A*03:19 = experiment: as above; conditions: source organism: Mycobacterium tuberculosis C
HLA-A*32:15 = experiment: as above; conditions: source organism: Mycobacterium tuberculosis C
HLA-C*06:02 [9] = experiment: as above; conditions: source organism: Mycobacterium tuberculosis C
HLA-C*14:02 = experiment: as above
HLA-C*05:01 = experiment: IEDB peptide-MHC binding, purified MHC/direct/fluorescence; filed as Kd, often an IC50 or EC50 that approximates it; ≥ and ≤ were set here for values at or beyond the usual limits of such assays; conditions: source organism: Yersinia pestis CO92
HLA-C*06:02 [10] = experiment: as above; conditions: source organism: Yersinia pestis CO92
HLA-C*15:02 = experiment: as above; conditions: source organism: Yersinia pestis CO92
HLA-B*51:01 = experiment: IEDB peptide-MHC binding, purified MHC/competitive/fluorescence; filed as Kd, often an IC50 or EC50 that approximates it; ≥ and ≤ were set here for values at or beyond the usual limits of such assays; conditions: source organism: Yersinia pestis CO92
HLA-B*27:04 = experiment: IEDB peptide-MHC binding, cellular MHC/competitive/fluorescence; ≥ and ≤ were set here for values at or beyond the usual limits of such assays; conditions: source organism: Human herpesvirus 4 strain B95-8
HLA-A*02:01 [11] = experiment: as above; conditions: source organism: Homo sapiens
[12] = source organism: Mycobacterium tuberculosis C
[13] = source organism: Marburg virus - Musoke, Kenya, 1980
[14] = source organism: Orthomarburgvirus marburgense
[15] = source organism: Yersinia pestis CO92

Question: Which results are given for RARRHLAAL?
Answer: Kd (HLA-C*07:02; [12]): 1.34 µM; Kd (HLA-A*32:07; [12]): 0.114 µM; Kd (HLA-B*15:42; [12]): ≥ 5 µM; Kd (HLA-B*27:20; [12]): 0.0074 µM; Kd (HLA-B*45:06; [12]): ≥ 5 µM; Kd (HLA-B*83:01; [12]): 5 µM

Question: For RHDITGFIL, which Kd (HLA-A*02:01 [1]) is on record?
Answer: ≥ 20 µM

Question: What about the Kd (HLA-A*26:03) of the same sequence?
Answer: ≥ 20 µM

Question: What about the Kd (HLA-A*68:02; source organism: Cowpox virus) of the same sequence?
Answer: ≥ 20 µM

Question: What about the Kd (HLA-A*69:01; source organism: Cowpox virus) of the same sequence?
Answer: ≥ 20 µM

Question: What about the Kd (HLA-B*07:02; source organism: Cowpox virus) of the same sequence?
Answer: ≥ 20 µM

Question: What about the Kd (HLA-B*08:03) of the same sequence?
Answer: ≥ 20 µM

Question: And the Kd (HLA-B*15:01; source organism: Cowpox virus)?
Answer: ≥ 20 µM

Question: And the Kd (HLA-B*15:09; source organism: Variola virus)?
Answer: 2.78 µM

Question: And the Kd (HLA-B*15:17; source organism: Cowpox virus)?
Answer: ≥ 20 µM

Question: And the Kd (HLA-B*38:01)?
Answer: 0.033 µM

Question: What about the Kd (HLA-B*39:01) of the same sequence?
Answer: 0.0235 µM

Question: What about the Kd (HLA-B*40:01) of the same sequence?
Answer: 0.513 µM

Question: And the Kd (HLA-B*46:01)?
Answer: ≥ 20 µM

Question: What about the Kd (HLA-B*57:01; source organism: Cowpox virus) of the same sequence?
Answer: ≥ 20 µM

Question: What about the Kd (HLA-B*58:01; source organism: Cowpox virus) of the same sequence?
Answer: ≥ 20 µM

Question: What about the Kd (HLA-A*01:01 [2]) of the same sequence?
Answer: ≥ 20 µM

Question: And the Kd (HLA-A*30:01)?
Answer: ≥ 20 µM

Question: What about the Kd (HLA-B*18:01; source organism: Vaccinia virus Copenhagen) of the same sequence?
Answer: ≥ 20 µM

Question: And the Kd (HLA-B*27:05 [3])?
Answer: ≥ 20 µM

Question: What about the Kd (HLA-B*48:01 [4]) of the same sequence?
Answer: 0.298 µM

Question: For NRWKSWFSY, which Kd (HLA-A*01:01 [5]) is on record?
Answer: ≥ 20 µM

Question: What about the Kd (HLA-A*11:01) of the same sequence?
Answer: ≥ 20 µM

Question: And the Kd (HLA-A*31:01)?
Answer: ≥ 20 µM

Question: What about the Kd (HLA-A*68:02; [13]) of the same sequence?
Answer: ≥ 20 µM

Question: And the Kd (HLA-A*69:01; [13])?
Answer: ≥ 20 µM

Question: And the Kd (HLA-B*07:02; [13])?
Answer: ≥ 20 µM

Question: What about the Kd (HLA-B*08:02) of the same sequence?
Answer: ≥ 20 µM

Question: What about the Kd (HLA-B*15:01; [13]) of the same sequence?
Answer: ≥ 20 µM

Question: What about the Kd (HLA-B*15:09; [14]) of the same sequence?
Answer: ≥ 20 µM

Question: And the Kd (HLA-B*15:17; [13])?
Answer: ≥ 20 µM

Question: What about the Kd (HLA-B*27:05 [6]) of the same sequence?
Answer: 0.0864 µM

Question: And the Kd (HLA-B*48:01 [7])?
Answer: ≥ 20 µM

Question: What about the Kd (HLA-B*57:01; [13]) of the same sequence?
Answer: ≥ 20 µM

Question: And the Kd (HLA-B*58:01; [13])?
Answer: ≥ 20 µM

Question: What about the Kd (HLA-B*73:01) of the same sequence?
Answer: 0.0098 µM

Question: And the Kd (HLA-A*02:01 [8]; [14])?
Answer: 2.54 µM

Question: And the Kd (HLA-A*26:02)?
Answer: ≥ 20 µM

Question: What about the Kd (HLA-B*18:01; [14]) of the same sequence?
Answer: ≥ 20 µM

Question: For MVRQMRAAL, which Kd (HLA-A*03:19) is on record?
Answer: 0.591 µM

Question: And the Kd (HLA-A*32:15)?
Answer: 0.356 µM

Question: What about the Kd (HLA-B*15:42; [12]) of the same sequence?
Answer: ≥ 5 µM

Question: And the Kd (HLA-B*45:06; [12])?
Answer: ≥ 5 µM

Question: And the Kd (HLA-B*83:01; [12])?
Answer: 0.0991 µM

Question: What about the Kd (HLA-C*06:02 [9]) of the same sequence?
Answer: 0.526 µM

Question: What about the Kd (HLA-C*14:02; [12]) of the same sequence?
Answer: 0.0335 µM

Question: With YQLEMYHPI as the sequence, how does the Kd (HLA-C*05:01) read?
Answer: ≥ 20 µM

Question: And the Kd (HLA-C*06:02 [10])?
Answer: ≥ 20 µM

Question: What about the Kd (HLA-C*07:02; [15]) of the same sequence?
Answer: 3.75 µM

Question: And the Kd (HLA-C*15:02)?
Answer: ≥ 20 µM

Question: And the Kd (HLA-A*02:01 [8]; [15])?
Answer: 0.0002 µM

Question: And the Kd (HLA-A*32:07; [15])?
Answer: 0.0013 µM

Question: And the Kd (HLA-B*15:42; [15])?
Answer: 15.2 µM

Question: And the Kd (HLA-B*27:20; [15])?
Answer: 0.0008 µM

Question: What about the Kd (HLA-B*45:06; [15]) of the same sequence?
Answer: 3.21 µM

Question: What about the Kd (HLA-B*51:01) of the same sequence?
Answer: ≥ 20 µM

Question: What about the Kd (HLA-B*83:01; [15]) of the same sequence?
Answer: ≥ 5 µM

Question: And the Kd (HLA-C*14:02; [15])?
Answer: 0.0709 µM

Question: For QRSYVSGVL, which IC50 (HLA-B*27:04) is on record?
Answer: 5 µM

Question: For ALVVQVAEA, which IC50 (HLA-A*02:01 [11]) is on record?
Answer: 2.58 µM
